# Reference: the supplement of paper PMC9112550, “Optimization of the antimicrobial peptide Bac7 by deep mutational scanning” (BMC Biology, 2022)
# System: Escherichia coli TOP10
# Assay: shrunken log2 fold change of peptide-encoding DNA abundance (4.5 h post-induction vs induction); higher = less antimicrobial activity (less host growth inhibition)
# Details: time post-induction: 4.5 h; library: site-saturation at positions 5, 18, 19, 20
# 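Note: peptides expressed intracellularly from a pBAD plasmid library in pooled LB shake-flask culture, induced with 0.3% L-arabinose, DNA abundance read by NGS, three biological replicates, DESeq2 with apeglm shrinkage.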
row,Sequence,shrunken log2 fold change
1,RRIRNRPPRLPRPRPRPKDYPRP,-0.232
2,RRIRPRPPRLPRPRPRPFDIPRP,-0.395
3,RRIRARPPRLPRPRPRPCTYPRP,-0.173
4,RRIRQRPPRLPRPRPRPDVDPRP,-0.152
5,RRIRMRPPRLPRPRPRPWIFPRP,0.0735
6,RRIRSRPPRLPRPRPRPKDQPRP,0.232
7,RRIRTRPPRLPRPRPRPIMYPRP,-0.347
8,RRIRLRPPRLPRPRPRPSTCPRP,-0.179
9,RRIRWRPPRLPRPRPRPPMFPRP,-0.00833
10,RRIRSRPPRLPRPRPRPSGFPRP,0.0519
11,RRIRLRPPRLPRPRPRPHECPRP,0.0907
12,RRIRSRPPRLPRPRPRPWKWPRP,0.0473
13,RRIRSRPPRLPRPRPRPHEWPRP,0.147
14,RRIRQRPPRLPRPRPRPYERPRP,0.074
15,RRIRCRPPRLPRPRPRPFTSPRP,-0.152
16,RRIRDRPPRLPRPRPRPWKDPRP,-0.0129
17,RRIRGRPPRLPRPRPRPKRGPRP,0.919
18,RRIRNRPPRLPRPRPRPHFDPRP,-0.356
19,RRIRDRPPRLPRPRPRPSCWPRP,0.585
20,RRIRMRPPRLPRPRPRPVLEPRP,0.426
21,RRIRTRPPRLPRPRPRPATSPRP,-0.12
22,RRIRMRPPRLPRPRPRPQYSPRP,0.0353
23,RRIRMRPPRLPRPRPRPTNSPRP,-0.302
24,RRIRARPPRLPRPRPRPQHAPRP,0.269
25,RRIRLRPPRLPRPRPRPYVRPRP,0.0394

row,Sequence,shrunken log2 fold change
1,RRIRFRPPRLPRPRPRPSDHPRP,-0.221
2,RRIRLRPPRLPRPRPRPKLGPRP,-0.123
3,RRIRARPPRLPRPRPRPGGPPRP,0.294
4,RRIRERPPRLPRPRPRPLDMPRP,-0.16
5,RRIRMRPPRLPRPRPRPVIVPRP,-0.313
6,RRIRARPPRLPRPRPRPENCPRP,0.177
7,RRIRLRPPRLPRPRPRPFEAPRP,-0.256
8,RRIRERPPRLPRPRPRPQNIPRP,-0.837
9,RRIRPRPPRLPRPRPRPQPFPRP,-0.149
10,RRIRHRPPRLPRPRPRPENLPRP,-0.00992
11,RRIRWRPPRLPRPRPRPLDRPRP,0.146
12,RRIRYRPPRLPRPRPRPNHAPRP,-0.142
13,RRIRRRPPRLPRPRPRPVIFPRP,0.145
14,RRIRTRPPRLPRPRPRPAYSPRP,0.0215
15,RRIRDRPPRLPRPRPRPSACPRP,0.294
16,RRIRFRPPRLPRPRPRPDVSPRP,0.0432
17,RRIRPRPPRLPRPRPRPCVPPRP,-0.134
18,RRIRQRPPRLPRPRPRPVCRPRP,0.198
19,RRIRDRPPRLPRPRPRPRALPRP,0.226
20,RRIRIRPPRLPRPRPRPYQYPRP,-0.19
21,RRIRPRPPRLPRPRPRPDHDPRP,-0.306
22,RRIRYRPPRLPRPRPRPPSPPRP,0.398
23,RRIRGRPPRLPRPRPRPRWGPRP,0.852
24,RRIRRRPPRLPRPRPRPTKYPRP,-0.198
25,RRIRHRPPRLPRPRPRPLWHPRP,-0.138

row,Sequence,shrunken log2 fold change
1,RRIRVRPPRLPRPRPRPRWYPRP,-0.232
2,RRIRERPPRLPRPRPRPPCMPRP,-0.272
3,RRIRGRPPRLPRPRPRPNWWPRP,3.32
4,RRIRWRPPRLPRPRPRPHEDPRP,0.185
5,RRIRMRPPRLPRPRPRPTYSPRP,0.0196
6,RRIRTRPPRLPRPRPRPFPRPRP,0.0242
7,RRIRTRPPRLPRPRPRPLSMPRP,-0.238
8,RRIRPRPPRLPRPRPRPIPRPRP,0.449
9,RRIRGRPPRLPRPRPRPKDPPRP,0.517
10,RRIRTRPPRLPRPRPRPIYFPRP,-0.468
11,RRIRDRPPRLPRPRPRPCFSPRP,-0.0275
12,RRIRWRPPRLPRPRPRPMLFPRP,-0.00681
13,RRIRGRPPRLPRPRPRPEALPRP,1.33
14,RRIRIRPPRLPRPRPRPDKQPRP,0.0185
15,RRIRWRPPRLPRPRPRPILKPRP,-0.281
16,RRIRIRPPRLPRPRPRPTEPPRP,0.0374
17,RRIRNRPPRLPRPRPRPYAPPRP,-0.702
18,RRIRPRPPRLPRPRPRPQQEPRP,0.0468
19,RRIRARPPRLPRPRPRPHYVPRP,-0.255
20,RRIRYRPPRLPRPRPRPKINPRP,-0.902
21,RRIRTRPPRLPRPRPRPLDAPRP,-0.00457
22,RRIRIRPPRLPRPRPRPLAHPRP,-0.379
23,RRIRARPPRLPRPRPRPQYMPRP,-0.112
24,RRIRARPPRLPRPRPRPDVLPRP,0.579
25,RRIRCRPPRLPRPRPRPERKPRP,0.086

row,Sequence,shrunken log2 fold change
1,RRIRKRPPRLPRPRPRPRAIPRP,0.304
2,RRIRMRPPRLPRPRPRPRHAPRP,0.698
3,RRIRQRPPRLPRPRPRPTITPRP,-0.273
4,RRIRARPPRLPRPRPRPTTRPRP,0.61
5,RRIRVRPPRLPRPRPRPFTWPRP,-0.327
6,RRIRERPPRLPRPRPRPHFIPRP,-0.573
7,RRIRRRPPRLPRPRPRPFALPRP,-0.00461
8,RRIRGRPPRLPRPRPRPWSEPRP,0.127
9,RRIRFRPPRLPRPRPRPWARPRP,-0.114
10,RRIRYRPPRLPRPRPRPNQTPRP,-0.0672
11,RRIRCRPPRLPRPRPRPTVFPRP,0.197
12,RRIRCRPPRLPRPRPRPWGCPRP,-0.00936
13,RRIRSRPPRLPRPRPRPFEPPRP,-0.268
14,RRIRERPPRLPRPRPRPWIIPRP,-0.269
15,RRIRARPPRLPRPRPRPAVGPRP,0.512
16,RRIRPRPPRLPRPRPRPPMIPRP,-0.425
17,RRIRLRPPRLPRPRPRPNWDPRP,0.14
18,RRIRRRPPRLPRPRPRPLLSPRP,0.148
19,RRIRLRPPRLPRPRPRPIPSPRP,-0.177
20,RRIRYRPPRLPRPRPRPEVRPRP,-0.187
21,RRIRARPPRLPRPRPRPGDTPRP,0.264
22,RRIRCRPPRLPRPRPRPLICPRP,-0.499
23,RRIRKRPPRLPRPRPRPAIDPRP,0.113
24,RRIRWRPPRLPRPRPRPCYCPRP,-0.247
25,RRIRSRPPRLPRPRPRPKWMPRP,0.269

row,Sequence,shrunken log2 fold change
1,RRIRARPPRLPRPRPRPSDMPRP,0.16
2,RRIRNRPPRLPRPRPRPYVNPRP,-0.121
3,RRIRFRPPRLPRPRPRPLDIPRP,-0.267
4,RRIRKRPPRLPRPRPRPAQSPRP,0.0619
5,RRIRIRPPRLPRPRPRPNPAPRP,0.0171
6,RRIRARPPRLPRPRPRPWYKPRP,-0.229
7,RRIRWRPPRLPRPRPRPYVRPRP,-0.0178
8,RRIRVRPPRLPRPRPRPGRRPRP,0.236
9,RRIRERPPRLPRPRPRPMTLPRP,-0.000163
10,RRIRMRPPRLPRPRPRPVWNPRP,-0.0831
11,RRIRTRPPRLPRPRPRPDGQPRP,0.0697
12,RRIRFRPPRLPRPRPRPEYVPRP,-0.15
13,RRIRSRPPRLPRPRPRPLASPRP,0.0667
14,RRIRSRPPRLPRPRPRPRMMPRP,0.0975
15,RRIRMRPPRLPRPRPRPQCAPRP,0.645
16,RRIRARPPRLPRPRPRPDYDPRP,0.0454
17,RRIRCRPPRLPRPRPRPHPNPRP,-0.186
18,RRIRLRPPRLPRPRPRPALSPRP,3.4
19,RRIRIRPPRLPRPRPRPGTCPRP,-0.188
20,RRIRKRPPRLPRPRPRPDNTPRP,-0.0368
21,RRIRGRPPRLPRPRPRPECRPRP,1.32
22,RRIRCRPPRLPRPRPRPGQRPRP,0.0965
23,RRIRDRPPRLPRPRPRPSKYPRP,-0.455
24,RRIRWRPPRLPRPRPRPAAFPRP,0.334
25,RRIRARPPRLPRPRPRPPPSPRP,1.26

row,Sequence,shrunken log2 fold change
1,RRIRKRPPRLPRPRPRPFLSPRP,-0.0256
2,RRIRTRPPRLPRPRPRPCTWPRP,-0.0134
3,RRIRYRPPRLPRPRPRPCRSPRP,0.00487
4,RRIRARPPRLPRPRPRPSRAPRP,0.555
5,RRIRNRPPRLPRPRPRPDCCPRP,0.00539
6,RRIRMRPPRLPRPRPRPGFWPRP,0.836
7,RRIRGRPPRLPRPRPRPTASPRP,1.49
8,RRIRKRPPRLPRPRPRPQCWPRP,0.00452
9,RRIRDRPPRLPRPRPRPFGSPRP,0.0468
10,RRIRKRPPRLPRPRPRPNVIPRP,0.0501
11,RRIRERPPRLPRPRPRPFDWPRP,0.0619
12,RRIRMRPPRLPRPRPRPNRKPRP,-0.0954
13,RRIRERPPRLPRPRPRPMDEPRP,-0.153
14,RRIRHRPPRLPRPRPRPSWLPRP,-0.0847
15,RRIRERPPRLPRPRPRPKQQPRP,-0.0499
16,RRIRHRPPRLPRPRPRPLGWPRP,0.708
17,RRIRNRPPRLPRPRPRPLTKPRP,0.164
18,RRIRSRPPRLPRPRPRPACLPRP,0.0251
19,RRIRGRPPRLPRPRPRPINSPRP,0.134
20,RRIRQRPPRLPRPRPRPPWLPRP,0.307
21,RRIRSRPPRLPRPRPRPQLTPRP,-0.136
22,RRIRHRPPRLPRPRPRPSEYPRP,-0.787
23,RRIRNRPPRLPRPRPRPVWKPRP,0.119
24,RRIRPRPPRLPRPRPRPNSWPRP,-0.299
25,RRIRTRPPRLPRPRPRPNPVPRP,-0.0168
